The series “SEC” deals with the molecule itself. Description: SEC. (SEC sorts molecules by how far they enter the pores of the column.)
The target in a further series is T1, GST-tagged chicken CK2α (chicken, UniProt P21868 1-391).
T1 sequence: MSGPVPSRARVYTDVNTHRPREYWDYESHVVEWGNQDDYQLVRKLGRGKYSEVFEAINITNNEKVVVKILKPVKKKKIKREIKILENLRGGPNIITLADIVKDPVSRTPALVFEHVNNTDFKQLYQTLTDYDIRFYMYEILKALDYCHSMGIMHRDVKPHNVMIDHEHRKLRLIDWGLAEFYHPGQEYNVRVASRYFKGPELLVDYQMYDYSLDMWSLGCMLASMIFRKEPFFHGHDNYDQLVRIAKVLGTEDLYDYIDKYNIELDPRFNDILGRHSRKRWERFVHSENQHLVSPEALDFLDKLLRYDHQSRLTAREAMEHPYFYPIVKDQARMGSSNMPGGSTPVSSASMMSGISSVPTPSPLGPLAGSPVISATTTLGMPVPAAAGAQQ
Description: pull-down.

Series [1] concerns the target T2, GST-tagged chicken CK2α kinase dead (K68A mutant) (chicken, UniProt P21868 1-391, K68A).
T2 sequence: T1 sequence with K68A
As to the kind of experiment: pull-down.

We go through three molecules from PMC3268813 (Scientific Reports, 2012).

Substitutions are numbered along the chain they refer to. Names and notes keep the numbering of the source.

B1: CRN2 wild-type C-terminal polypeptide (aa300-474), His6-tagged (domain or fragment)
chain: PYVHYLNTFSSKEPQRGMGYMPKRGLDVNKCEIARFFKLHERKCEPIIMTVPRKSDLFQDDLYPDTAGPEAALEAEEWFEGKNADPILISLKHGYIPGKNRDLKVVKKNILDSKPTANKKCDLISIPKKTTDTASVQNEAKLDEILKEIKSIKDTICNQDERISKLEQQMAKIAA
As a reminder, the stoichiometry N is the number of molecules, sites or subunits per partner or assembly. As for B1, the “stoichiometry N” value in “SEC” was 3. For the same molecule, the binding result (with GST-tagged chicken CK2α; in series [1]) was “binds” in each case.

B2: CRN2 S463A phospho-resistant C-terminal polypeptide (aa300-474), His6-tagged (domain or fragment)
chain: B1 chain with S164A
In the case of B2, the “stoichiometry N” value in “SEC” was 3.

B3: CRN2 S463D phosphomimetic C-terminal polypeptide (aa300-474), His6-tagged (domain or fragment)
chain: B1 chain with S164D
Consider B3, for which, in “SEC”, the “stoichiometry N” value turned out to be 3. Further, the binding result (with GST-tagged chicken CK2α; in series [1]) was “binds” in each case.
